Reference: the supplement of paper PMC7877785
± gives the uncertainty stated by the source.

Assay: self-splicing fitness, log relative to wild type (ln ratio); higher = more splicing; Tetrahymena group I intron in knt gene, E. coli kanamycin selection, DiMSum; sequences stand for … in CUCUCU…GGAGGGAAAAGUUAUCAGGCAUGCACCUGGUAGCUAGUCUUUAAACCAAUAGAUUGCAUCGGUUUAAAAGGCAAGACCGUCAAAUUGCGGGAAAGGGGUCAACAGCCGUUCAGUACCAAGUCUCAGGGGAAACUUUGAGAUGGCCUUGCAAAGGGUAUGGUAAUAAGCUGACGGACAUGGUCCUAACCACGCAGCCAAGUCCUAAGUCAACAGAUCUUCUGUUGAUAUGGAUGCAGUUCACAGACUAAAUGUCGGUCGGGGAAGAUGUAUUCUUCUCAUAAGAUAUAGUCGGACCUCUCCUUAAUGGGAGCUAGCGGAUGAAGUGAUGCAACACUGGAGCCGCUGGGAACUAAUUUGUAUGCGAAAGUAUAUUGAUUAGUUUUGGAGUACUCGUGGUCG
Outline: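 The eight P1ex-region nucleotides of an intron in the knt kanamycin-resistance gene on pET-22b(+) were all randomised and the library put into E. coli BL21(DE3). Six replicate transformations were grown overnight at 37°C or 30°C on LB agar with or without 25 μg/mL kanamycin, together with 100 μg/mL carbenicillin, 50 μM IPTG and 0.2% rhamnose. Colonies were pooled and amplicon-sequenced on an Illumina HiSeq 2500. Fitness from DiMSum is the error-weighted combination of wild-type-normalised replicate fold changes, kanamycin over none.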

Row | Sequence | self-splicing fitness (ln) (30 °C) | self-splicing fitness (ln) (37 °C)
1 | UCCGAGCAAUAUUACGGCGA | -0.0162 ± 0.1 | -0.0341 ± 0.12
2 | AUGGAGCAAUAUUACGGGUG | -3.75 ± 0.39 | -2.18 ± 0.22
3 | CGGUAGCAAUAUUACGGUGA | -3.76 ± 0.41 | -0.848 ± 0.17
4 | UCCUAGCAAUAUUACGCGGA | -3.3 ± 0.26 | -2.51 ± 0.25
5 | UGGCAGCAAUAUUACGUGGG | -2.8 ± 0.1 | -2.02 ± 0.11
6 | UACAAGCAAUAUUACGGGGU | -3.88 ± 0.15 | -2.58 ± 0.15
7 | CGUGAGCAAUAUUACGAUGG | -0.492 ± 0.1 | -0.139 ± 0.13
8 | UAAUAGCAAUAUUACGUUCA | -0.833 ± 0.098 | -0.14 ± 0.1
9 | CCUCAGCAAUAUUACGGCAG | -2.91 ± 0.18 | -1.15 ± 0.13
10 | CGCAAGCAAUAUUACGGCUC | -1.94 ± 0.14 | -1.43 ± 0.15
11 | UGUUAGCAAUAUUACGCCCG | -0.283 ± 0.18 | 0.289 ± 0.22
12 | AUAAAGCAAUAUUACGAUAG | -2.82 ± 0.15 | -0.468 ± 0.14
13 | GCGGAGCAAUAUUACGUUGA | -2.63 ± 0.32 | -2.31 ± 0.32
14 | GCUCAGCAAUAUUACGGGAC | -0.927 ± 0.27 | -0.928 ± 0.26
15 | AUUGAGCAAUAUUACGGUUG | -3.28 ± 0.31 | -2.48 ± 0.29
16 | UAUCAGCAAUAUUACGGCUU | -1.03 ± 0.075 | -0.106 ± 0.11
17 | UAUGAGCAAUAUUACGCGGU | -3.41 ± 0.21 | -2.68 ± 0.3
18 | UUUAAGCAAUAUUACGCCGA | -0.292 ± 0.13 | 0.0683 ± 0.15
19 | CCAUAGCAAUAUUACGAAUG | -2.11 ± 0.08 | -1.15 ± 0.095
20 | UGCGAGCAAUAUUACGAUCC | – | -2.04 ± 0.46
21 | GUUCAGCAAUAUUACGUGCG | -1.45 ± 0.068 | -0.215 ± 0.093
22 | UCUCAGCAAUAUUACGCAUG | – | -1.04 ± 0.45
23 | UACCAGCAAUAUUACGAUGC | -3.19 ± 0.16 | -3.07 ± 0.25
24 | CAAGAGCAAUAUUACGAUUG | -2.26 ± 0.13 | -1.86 ± 0.15
25 | AAAAAGCAAUAUUACGGUGA | -0.824 ± 0.058 | -0.362 ± 0.064
26 | ACAGAGCAAUAUUACGUCGC | -2.98 ± 0.31 | -3.02 ± 0.31

Row | Sequence | self-splicing fitness (ln) (30 °C) | self-splicing fitness (ln) (37 °C)
27 | GGUGAGCAAUAUUACGCGAA | -2.96 ± 0.14 | -1.65 ± 0.13
28 | UUAAAGCAAUAUUACGUGUU | -3 ± 0.13 | -1.96 ± 0.16
29 | GGCCAGCAAUAUUACGCGAG | – | -2.98 ± 0.35
30 | CAAAAGCAAUAUUACGACCU | -1.79 ± 0.095 | -0.569 ± 0.084
31 | CUUCAGCAAUAUUACGUUCA | -3.63 ± 0.26 | -2.04 ± 0.23
32 | CCCUAGCAAUAUUACGUUCC | -2.3 ± 0.22 | -2.11 ± 0.24
33 | AGUGAGCAAUAUUACGUACC | -0.317 ± 0.2 | -0.261 ± 0.28
34 | AGAGAGCAAUAUUACGGGUU | -4.74 ± 0.46 | -2.08 ± 0.23
35 | CUUCAGCAAUAUUACGGGGU | -3.95 ± 0.2 | -2.45 ± 0.25
36 | UGUAAGCAAUAUUACGCUGU | -3.43 ± 0.18 | -2.07 ± 0.18
37 | GUCCAGCAAUAUUACGCUAG | -1.18 ± 0.076 | -0.908 ± 0.1
38 | GCCUAGCAAUAUUACGUUGU | -0.142 ± 0.04 | 0.252 ± 0.055
39 | UUAAAGCAAUAUUACGUGCU | -1.16 ± 0.082 | -0.057 ± 0.12
40 | GCCUAGCAAUAUUACGCCUC | 0.149 ± 0.18 | 0.175 ± 0.41
41 | CACGAGCAAUAUUACGAAAA | -2.14 ± 0.17 | -2.66 ± 0.25
42 | CUACAGCAAUAUUACGCAGC | -2.28 ± 0.24 | -1.75 ± 0.36
43 | AUAUAGCAAUAUUACGGCUA | -0.422 ± 0.1 | -0.506 ± 0.12
44 | UGCGAGCAAUAUUACGCCUC | -2.78 ± 0.43 | –
45 | UCGCAGCAAUAUUACGACAG | -2.6 ± 0.25 | -0.246 ± 0.35
46 | GUAAAGCAAUAUUACGGGCC | -1.92 ± 0.25 | -1.05 ± 0.23
47 | GGCUAGCAAUAUUACGUGGA | -1.81 ± 0.14 | -0.667 ± 0.12
48 | UCUCAGCAAUAUUACGAGUC | -3.98 ± 0.18 | -2.93 ± 0.18
49 | CCGCAGCAAUAUUACGUGUU | -3.84 ± 0.14 | -3.1 ± 0.21
50 | UCGUAGCAAUAUUACGCUGC | – | -2.48 ± 0.36
51 | CUGAAGCAAUAUUACGGAAC | – | -2.55 ± 0.3
52 | GAGGAGCAAUAUUACGCACU | – | -1.49 ± 0.36

Row | Sequence | self-splicing fitness (ln) (30 °C) | self-splicing fitness (ln) (37 °C)
53 | CGAAAGCAAUAUUACGUCUG | -0.362 ± 0.066 | 0.364 ± 0.078
54 | GAAGAGCAAUAUUACGAGAC | -3.95 ± 0.26 | -1.4 ± 0.25
55 | CGACAGCAAUAUUACGUCGU | -4.07 ± 0.19 | -2.29 ± 0.11
56 | AGCAAGCAAUAUUACGAACA | -0.765 ± 0.099 | -0.407 ± 0.12
57 | GCUUAGCAAUAUUACGAUUC | -0.128 ± 0.12 | 0.0621 ± 0.13
58 | UAUAAGCAAUAUUACGCGGC | -3.53 ± 0.35 | -2.92 ± 0.47
59 | GCCCAGCAAUAUUACGACGC | -0.00307 ± 0.052 | -0.0866 ± 0.067
60 | AUCAAGCAAUAUUACGGCCG | -0.0854 ± 0.092 | -0.00151 ± 0.15
61 | GUGGAGCAAUAUUACGGGAU | -4.12 ± 0.23 | -1.99 ± 0.24
62 | UGCUAGCAAUAUUACGGAAU | -3.98 ± 0.39 | -2.97 ± 0.29
63 | CCAUAGCAAUAUUACGCGGC | -4.01 ± 0.35 | -2.87 ± 0.43
64 | GGUUAGCAAUAUUACGCUAU | -4.15 ± 0.46 | -2.72 ± 0.34
65 | AACUAGCAAUAUUACGGCGU | -0.717 ± 0.072 | 0.0758 ± 0.085
66 | GUCUAGCAAUAUUACGGGUG | -1.28 ± 0.05 | -0.553 ± 0.058
67 | ACCCAGCAAUAUUACGACGA | -0.509 ± 0.084 | -0.36 ± 0.086
68 | AUUCAGCAAUAUUACGUCCC | -1.53 ± 0.13 | -1.3 ± 0.14
69 | AAUUAGCAAUAUUACGGGCA | -0.73 ± 0.14 | 0.186 ± 0.11
70 | ACGUAGCAAUAUUACGCGGU | -3.63 ± 0.16 | -2.33 ± 0.17
71 | AUUAAGCAAUAUUACGCAUG | -1.09 ± 0.08 | -0.301 ± 0.11
72 | UCUGAGCAAUAUUACGGAUU | -3.51 ± 0.26 | -1.72 ± 0.23
73 | CUGUAGCAAUAUUACGGGGC | -4.95 ± 0.36 | -2.14 ± 0.19
74 | UACGAGCAAUAUUACGUAUU | -3.45 ± 0.25 | -2.47 ± 0.41
75 | UUCCAGCAAUAUUACGUCAC | -2.79 ± 0.18 | -3.15 ± 0.29
76 | CAAUAGCAAUAUUACGGGAA | -3.21 ± 0.2 | -1.94 ± 0.15
77 | GUGCAGCAAUAUUACGUCGU | -1.01 ± 0.12 | -0.193 ± 0.14
